Assay results reported in publication PMC9169791 (Proceedings of the National Academy of Sciences of the …, 2022).

Target: T1, GST-DDRM1 (Arabidopsis thaliana, UniProt Q9ZW89 1-453)
T1 sequence (looked up): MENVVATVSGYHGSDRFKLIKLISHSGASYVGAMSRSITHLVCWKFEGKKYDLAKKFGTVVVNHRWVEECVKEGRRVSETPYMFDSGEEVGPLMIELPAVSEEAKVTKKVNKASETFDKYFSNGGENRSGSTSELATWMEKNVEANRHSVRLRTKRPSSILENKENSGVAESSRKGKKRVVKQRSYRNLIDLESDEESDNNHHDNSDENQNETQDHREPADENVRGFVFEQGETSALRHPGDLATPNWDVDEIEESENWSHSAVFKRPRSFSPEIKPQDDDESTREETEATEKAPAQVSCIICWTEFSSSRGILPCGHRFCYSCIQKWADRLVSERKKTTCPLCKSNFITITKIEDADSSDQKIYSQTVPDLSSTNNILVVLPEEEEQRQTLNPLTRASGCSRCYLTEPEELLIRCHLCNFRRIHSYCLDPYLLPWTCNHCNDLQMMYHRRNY
Test: pull-down

B1: MBP-SOG1 (natural protein, Arabidopsis thaliana, UniProt Q6NQK2 1-449, looked up)
chain: MAGRSWLIDSNRIATKIMSASASSDPRQVVWKSNPSRHCPKCQHVIDNSDVVDDWPGLPRGVKFDPSDPEIIWHLLAKSGLSGLSSHPFIDEFIPTVNQDDGICYTHPKNLPGVKSDGTVSHFFHKAIKAYSTGTRKRRKIHDDDFGDVRWHKTGRTKPVVLDGVQRGCKKIMVLYGGKAVKTNWVMHQYHLGIEEDEKEGDYVVSKIFYQQPQQLVVKRGDKAEQEVSEDIFAAVTPTADPVTPKLATPEPRNAVRICSDSHIASDYVTPSDYVSAHEVSLAETSEVMCMEDEVQSIQPNHERPSSGPELEHGLENGAKEMLDDKEEQEKDRDNENQGEEDPTWFDSGSQFILNSQQLVEALSLCDDLLGSQDREENTNSGSLKDKQPCIADYAHLGPEDFKRDLEECQKIVLDPSNIELDTPPEFRLSQLEFGSQDSFLAWGTGKTD
  binding result: binds
